Assay: label from the status in PepcDB records
In the case of “MLQAGTKKFLREYGSTCAPLFLALGVCLICCLPAACPKENFIDENAISVSRVPVITGMLGELHMDTRISQYTRVVRGRRSVGSESIAVYVNAAFESSVVLANHLIYVLREKENMACDTNFYFFNDTSKDWPIPDSFVRAAIVINVTSFHTNNLCFNVFGANGMQPNQDLFNLAVAIAEKWRFNIDVLCQNPYISFSTSRPIYEHYFLALQTALVAPLRYQPWYKMRSRGISLLAISTEKSERRTKSSYGYNMAAAHEQLIATLSYLHERFHHSTSVWIPLSVDQYVEYDVIQFATILFVASLLSTCYSIYEVEGFSFSPCAALVSATGLAALVSTLNFGTAGFFVSSGVLTVGLGAFSWDMSWGAINAVVLCLLIILQPVAGLVMGFGATLQLQFIHVRCRKWHVLLIGAILSWIVLVALTEVMKAKLFDTETTAGVYFSFFLYPNALWISSRLIRSTLGA”, the protein production is reported as “failed”.
For “MLQGKVSVIVPAYNAARLLERCVRSITGQTYPALEVIVVDDGSKDDTGKIADQLAAEDSRIRVVHKTNGGVSAARNDALKLVEGEWITFVDSDDYLEPDFLRSLLDGEVADLVIGGYHTVGANEIPSANYPTDTAHSPEAIKRALEARLTDMTFLCPWGKLFRTSLVRSLRLIFNTEMKVGEDVVFVWSYLAHCSSLAFKQGQGYDYYTEPGADFKYALDETVSLQTIERILGVLDGLKRNFGMDTEHARCHVLNYYIWLFKLYVNRNYLLRDLARMKNFFYYPLILDYYKTYRRTSKDKLLVYLLLKLRLSGVLYLMIKLYYLEHHHHHH”, the protein production was “not failed”.
For “MLQLTRVSRLMNIHCGALMNLKQQYQTSLITDALLHSLQTHSVCTTPSETIDSALNSDGMDRQWMSFFYLPELNSTTVNKIKSILSSFTEVGYIEIDQQTHHLAIYHDGPITPIEKNLEKQGIDVVFQQTQANYIPEPIDWKQIKKRHQILSWLFSINLIMLMVTFFTGLIASSTALIALALIIMSDVMIYAMTLYGIHEKQIGLYKFTRVGLYLQISLSLLLILAVIFQSVLQHQPLAQLIILVAALAFFTMLINMYLLIQTQQERPDLLNFRQWFSFYDVMFSFAVIVAGICCLLFDSNWPDITITTLMVFFLLDRSRRVFKKKTSFVVQ”, the protein production was “failed”.
For “MLRGILWDMDGTLVDSEGIWAQATFAMSTEMGRRLTAAQQRETVGSSFNFTVSLCASNAGIELDSEAKNYWQSFMSHYVTEKFDSSLLPNPGIKEVLDSCRNAEIPMAIATNTIRSIANHSIGAVGIEYFKATVCGDEVANPKPAPDVYLKGAQALGVPPEGCIVFEDSKSGMLGGLAAGCIVISVVDHLNNQPLPEGVVPLSRLHGSADFRGVSAEEIMQWYATLSPNAQ”, the protein production was “failed”.
In the case of “MLRGVAALVVYKGKPALAEEKGGRLELTLEGGARQRVRPKDVLFLHPGPASLDLKVPEGEEEAAWELLEGQTVSLRELAELVYGAYTPEAALGAYLLAQKGERFVLEGEGVRARTREELLALQEAERKRAERERAFQEALKRLKEGSPAPEDRPLLAEVEALARGERKESPVLRALNLPETPEAAHAFLLRLGLWQRENPHPRRLGLPLQPPDLPVPPLPEEDRVDLTHLPAFAIDDEGSQDPDDAVFAEKVEGGFRLFVHVADVAALVPPKSPLDEEALRRGANLYLPEGTVPMLPPAVTEALGLGLREVSPALTFELWVSEEGELLEERVYPSWVRVTRLTYREALGVEALRPLEALAEAFRAKRLAAGALEIALPEVKVRVEGEEVRITPLPPYPSRVWVREAMLLAGYAAAHLAVREGLPFPFATQEAPARRVEGEGLAAMWEQRKALKRAQLKAVPAPHKGLGLPLYAQVTSPLRRYLDLVAHQQLRAWLKGERPLSQAEVLERVGAAEAVADLVREAERKSKLHWTLLHLEAKGYEGPGVLVERRGGQGVFLLPELGLTAQVALPKALPLNAEARLRFLEADLPALEARFALV”, the protein production is reported as “failed”.
